Source: patent US20120251444A1

Target: LRP1 on wild-type CHO-K1 cells
Test: cell-based or functional assay

## mini-RAPc (Hep1) combined with equimolar streptavidin-saporin conjugate (ZAP) (from UniProt P22629 37-163)
  reduction of viable cell number (MTT assay, 100 nM, 48 hours): 40%
